Laboratory results published in patent publication US20230381281A1, “PHARMACEUTICAL COMPOSITION COMPRISING GLUCAGON/GLP-1/GIP TRIPLE AGONIST OR LONG-ACTING CONJUGATE THEREOF FOR PREVENTING OR TREATING LUPUS-RELATED DISEASES” (HANMI PHARM. CO., LTD., priority 2020, published 2023).
Bridge positions count the residues as written; N and C are the ends. Square brackets hold non-standard residues; d marks the D form. Ends that are not written are not given here. * marks the point of attachment. Acetyl(2-(4-imidazolyl)) = O=C(Cc1c[nH]cn1)*; Aib = CC(C)(N)C(=O)O

T1: human GIP receptor (human, UniProt P48546 22-466)
T1 sequence (looked up): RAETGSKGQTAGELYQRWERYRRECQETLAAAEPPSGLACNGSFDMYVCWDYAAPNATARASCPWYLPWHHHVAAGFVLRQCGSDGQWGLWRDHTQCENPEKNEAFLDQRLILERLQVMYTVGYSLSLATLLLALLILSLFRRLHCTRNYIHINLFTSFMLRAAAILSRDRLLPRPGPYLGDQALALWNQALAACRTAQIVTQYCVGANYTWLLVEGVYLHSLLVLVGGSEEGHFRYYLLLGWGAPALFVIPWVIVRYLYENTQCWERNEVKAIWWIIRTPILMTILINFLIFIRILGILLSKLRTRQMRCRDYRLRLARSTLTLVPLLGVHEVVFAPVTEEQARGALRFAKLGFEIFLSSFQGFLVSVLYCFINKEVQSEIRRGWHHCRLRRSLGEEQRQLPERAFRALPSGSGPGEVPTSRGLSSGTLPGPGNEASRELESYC

B1: Triple agonist of SEQ ID NO: 100 (peptide)
peptide: Y[Aib]QGTFTSDYSKALDEKAAKEFVQWLLDQHPSSGQPPPSC
modifications: bridge 16-20
B2: Triple agonist of SEQ ID NO: 94 (peptide)
peptide: {Acetyl(2-(4-imidazolyl))}-[Aib]QGTFTSDYSIAMDEIHQKDFVNWLLNTKC
modifications: bridge 15-19
B3: Triple agonist of SEQ ID NO: 98 (peptide)
peptide: Y[Aib]QGTFTSDYSKALDEKAAKEFVNWLLDHHPSSGQPPPSC
modifications: bridge 16-20
B4: Triple agonist of SEQ ID NO: 13 (peptide)
peptide: {Acetyl(2-(4-imidazolyl))}-GEGTFISDYSIQLDEIAVQDFVEWLLAQKPSSGAPPPSHG
B5: Triple agonist of SEQ ID NO: 96 (peptide)
peptide: Y[Aib]QGTFTSDYSKYLDEKRAKEFVQWLLDHCPSSGQPPPS
modifications: bridge 16-20
B6: Triple agonist of SEQ ID NO: 10 (peptide)
peptide: H[Aib]QGTFTSDVSKYLDGQAAQEFVAWLLAGGGPSSGAPPPSC
B7: Triple agonist of SEQ ID NO: 12 (peptide)
peptide: {Acetyl(2-(4-imidazolyl))}-GEGTFISDLSKYMDEQAVQLFVEWLMAGGPSSGAPPPSHG
B8: Triple agonist of SEQ ID NO: 18 (peptide)
peptide: {Acetyl(2-(4-imidazolyl))}-GQGTFTSDLSKQMDSERAREFIEWLKNTGPSSGAPPPSHG
B9: Triple agonist of SEQ ID NO: 22 (peptide)
peptide: Y[Aib]QGTFTSDYSKCLDEKRAKEFVQWLLDHHPSSGQPPPS
modifications: bridge 16-20
B10: Triple agonist of SEQ ID NO: 87 (peptide)
peptide: {Acetyl(2-(4-imidazolyl))}-[Aib]QGTFTSDYSIAMDEIHQKDFVNWLLNTC
modifications: bridge 15-19
B11: Triple agonist of SEQ ID NO: 97 (peptide)
peptide: Y[Aib]QGTFTSDYSKYLDEKRAKEFVQWLLDCHPSSGQPPPS
modifications: bridge 16-20
B12: Triple agonist of SEQ ID NO: 19 (peptide)
peptide: {Acetyl(2-(4-imidazolyl))}-GQGTFTSDLSIQYDSEHQRDFIEWLKDTGPSSGAPPPSHG
B13: Triple agonist of SEQ ID NO: 102 (peptide)
peptide: Y[Aib]QGTFTSDYSKALDEKAAKDFVNWLLDQHPSSGQPPPSC
modifications: bridge 16-20
B14: Triple agonist of SEQ ID NO: 16 (peptide)
peptide: {Acetyl(2-(4-imidazolyl))}-GQGTFTSDLSKQMDSEAQQLFIEWLKNGGPSSGAPPPSHG
B15: Triple agonist of SEQ ID NO: 92 (peptide)
peptide: {Acetyl(2-(4-imidazolyl))}-[Aib]QGTFTSDYSIAMDEIHQKDFVNWLLAQKC
modifications: bridge 15-19

Target: human GCG receptor (human, UniProt P47871 26-477)
Assay: cell-based or functional assay

human GCG receptor, sequence (P47871 26-477): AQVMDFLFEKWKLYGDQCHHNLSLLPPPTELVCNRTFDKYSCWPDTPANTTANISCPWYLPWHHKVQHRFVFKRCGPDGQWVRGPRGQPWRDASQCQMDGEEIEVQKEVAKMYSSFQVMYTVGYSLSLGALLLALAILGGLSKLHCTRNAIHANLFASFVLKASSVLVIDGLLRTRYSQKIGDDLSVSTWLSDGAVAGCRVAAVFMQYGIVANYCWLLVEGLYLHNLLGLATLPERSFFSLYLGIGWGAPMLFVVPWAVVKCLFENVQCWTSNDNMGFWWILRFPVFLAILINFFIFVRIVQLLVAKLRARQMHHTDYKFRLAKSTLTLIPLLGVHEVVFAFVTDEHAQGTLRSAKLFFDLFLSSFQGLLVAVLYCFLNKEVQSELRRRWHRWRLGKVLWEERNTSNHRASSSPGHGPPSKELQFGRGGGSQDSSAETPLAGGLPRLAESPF

Compared with B1, B2 is lower in “In vitro activity compared to native peptide (%) vs Glucagon” value (shortened to “In vitro activity … (%) vs Glucagon”): 12.7% for the first, less than 0.1% for the second.

First: B3
Second: B4
The “In vitro activity … (%) vs Glucagon” value of the first is higher: 8.2% for the first, less than 0.1% for the second.

Going from B5 to B6, the “In vitro activity … (%) vs Glucagon” value falls from 195% to less than 0.1%.

B7 and B8 cannot be ordered by “In vitro activity … (%) vs Glucagon” value: less than 0.1% for the first, less than 0.1% for the second.

First: B9
Second: B10
The “In vitro activity … (%) vs Glucagon” value of the first is higher: 140% for the first, less than 0.1% for the second.

First: B11
Second: B12
The “In vitro activity … (%) vs Glucagon” value of the first is higher: 62.8% for the first, less than 0.1% for the second.

Compared with B13, B14 is lower in “In vitro activity … (%) vs Glucagon” value: 29.5% for the first, less than 0.1% for the second.

For B15, the “In vitro activity … (%) vs Glucagon” value was less than 0.1%.

Target: human GLP-1 receptor (human, UniProt P43220 24-463)
Assay: cell-based or functional assay

Going from B1 to B2, the “In vitro activity compared to native peptide (%) vs GLP-1” value (“In vitro activity … (%) vs GLP-1” for short) falls from 42.2% to 0.5%.

Compared with B3, B4 is lower in “In vitro activity … (%) vs GLP-1” value: 28.1% for the first, less than 0.1% for the second.

Going from B5 to B6, the “In vitro activity … (%) vs GLP-1” value rises from 34.4% to 46%.

Compared with B7, B8 is lower in “In vitro activity … (%) vs GLP-1” value: 0.4% for the first, less than 0.1% for the second.

Going from B9 to B10, the “In vitro activity … (%) vs GLP-1” value falls from 20.1% to 0.9%.

Going from B11 to B12, the “In vitro activity … (%) vs GLP-1” value falls from 10.5% to less than 0.1%.

Going from B13 to B14, the “In vitro activity … (%) vs GLP-1” value falls from 23.3% to 2.1%.

B15 was tested, and the “In vitro activity … (%) vs GLP-1” value was 0.8%.

Target: T1, human GIP receptor
Assay: cell-based or functional assay

First: B1
Second: B2
The “In vitro activity compared to native peptide (%) vs GIP” value (“In vitro activity … (%) vs GIP” for short) of the first is higher: 118% for the first, less than 0.1% for the second.

Going from B3 to B4, the “In vitro activity … (%) vs GIP” value falls from 47.1% to less than 0.1%.

Compared with B5, B6 is lower in “In vitro activity … (%) vs GIP” value: 5.2% for the first, less than 0.1% for the second.

B7 and B8 cannot be ordered by “In vitro activity … (%) vs GIP” value: less than 0.1% for the first, less than 0.1% for the second.

First: B9
Second: B10
The “In vitro activity … (%) vs GIP” value of the first is higher: 59.7% for the first, less than 0.1% for the second.

Going from B11 to B12, the “In vitro activity … (%) vs GIP” value falls from 2.6% to less than 0.1%.

Going from B13 to B14, the “In vitro activity … (%) vs GIP” value falls from 58% to less than 0.1%.

With B15 the “In vitro activity … (%) vs GIP” value was 0.4%.
